The target of the assay is Drosophila Orai (dOrai), expressed in HEK293T cells (Drosophila) (UniProt Q9U6B8).

Experimental findings from article PMC4557345 are described below.

Sequence of UniProt Q9U6B8 (Q9U6B8 whole entry): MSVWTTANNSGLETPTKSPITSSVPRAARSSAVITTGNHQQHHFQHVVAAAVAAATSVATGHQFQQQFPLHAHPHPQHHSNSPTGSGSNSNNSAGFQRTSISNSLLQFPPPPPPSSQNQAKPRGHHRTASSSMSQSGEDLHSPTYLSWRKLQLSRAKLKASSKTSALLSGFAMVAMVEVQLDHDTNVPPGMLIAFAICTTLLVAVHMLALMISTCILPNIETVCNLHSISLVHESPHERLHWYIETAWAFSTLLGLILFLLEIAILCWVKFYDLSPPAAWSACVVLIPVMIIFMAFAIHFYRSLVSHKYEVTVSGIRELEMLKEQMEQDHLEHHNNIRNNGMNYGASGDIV

On to dmBACCS2-N425S, for which the recovery time constant of the light-activated whole-cell current (patch clamp, HEK293T), against dmBACCS2 (fold of dmBACCS2) is less than 0.5.
In the case of dmBACCS2-V416L it was greater than 100.
